Test [1] deals with human CD81 on CD81-expressing cells (Jurkat E6.1, human PBMC, Ramos) (human) (UniProt P60033). Briefly: flow cytometry, human PBMC.
The target is the same in test [2]. Briefly: flow cytometry, Jurkat E6.1 cells. On the technique in general: Flow cytometry measures light scatter and fluorescence of single cells or particles in a stream.
Test [3] has the same target. The test is described as follows: flow cytometry, Jurkat cells, 10 µg/mL.
Test [4] has the same target. The test is described as follows: flow cytometry, Ramos cells, 0.01 µg/mL.
Test [5] has the same target. The test is described as follows: flow cytometry, Jurkat cells, 0.1 µg/mL.
Test [6] shares this target. The test is described as follows: flow cytometry, Jurkat cells, 0.01 µg/mL.
Test [7] shares this target. The test is described as follows: flow cytometry, Jurkat cells, 1 µg/mL.
The target is the same in test [8]. Briefly: flow cytometry, Ramos cells, 0.1 µg/mL.
Test [9] shares this target. Briefly: flow cytometry, Ramos cells, 10 µg/mL.
For test [10] the target is unchanged. Briefly: flow cytometry, Ramos cells, 1 µg/mL.

Chain of human CD81 on CD81-expressing cells (Jurkat E6.1, human PBMC, Ramos) (human) (P60033 whole entry): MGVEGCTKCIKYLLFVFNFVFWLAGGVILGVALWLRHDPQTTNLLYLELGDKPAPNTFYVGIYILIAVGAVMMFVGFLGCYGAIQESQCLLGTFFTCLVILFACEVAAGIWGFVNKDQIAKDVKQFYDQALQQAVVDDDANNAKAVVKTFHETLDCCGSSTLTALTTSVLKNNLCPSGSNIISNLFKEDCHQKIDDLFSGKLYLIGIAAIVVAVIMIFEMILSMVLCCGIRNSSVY

For control human IgG4 (Acris) (antibody), the binding ratio to cells (%) in test [1] and in test [2] was 1% each time.

For “control human IgG (AbD Serotec) (antibody)”, the geometric mean FL2 in [3] came to 8; in [4], 4; in test [5], 4; in [6], 4; in [7], 4; in test [8], 4. In addition, the figures for the geometric mean FL2 in test [9] and in test [10] were 8 and 5, respectively.

Values taken from patent US20150139990A1.
